The text below walks through data of patent US20190030156A1.

The experiment concerns the target prefusion F hybrid: RSV F (S155C/S290C plus A102C/I148C) with transmembrane domain and cytoplasmic tail of hMPV F, on VLPs (human respiratory syncytial virus; human metapneumovirus) (UniProt P12568). Kind of experiment: dot blot of VLPs, 5C4 signal normalized over Palivizumab, 3 independent experiments.

As to “5C4, a mouse monoclonal antibody (mAb) specific for the prefusion-only antigen site Φ”, the fold recognition relative to postfusion F was found to be 19.2 fold.
